Data on 1 molecule can be found in US8415106B2, “Cell-based screen for agents useful for reducing neuronal demyelination or promoting neuronal remyelination” (Myelin Repair Foundation, Inc., priority 2005, dated 2013).

Assay [1] concerns ER stress markers (BIP, CHOP, p-eIF-2α, caspase-12). The experiment in a line: ER stress markers in IFN-γ-treated cultured rat oligodendrocytes (real-time PCR, Western blot). It is filed as cell-based. As for the experimental part:
To test whether apoptosis of oligodendrocytes that is induced by INF-γ affects ER stress, the effect on the morphology, the degree of apoptosis and the expression of ER markers was studied in a culture of oligodendrocyte precursor cells (OPC). Oligodendrocyte progenitors were cultured from neonatal rat brains (Baerwald, et al. (1998) J. Neurosci. Res. 52: 230-239). A mixed glial culture was grown in flasks in medium containing 10% fetal bovine serum (FBS), and when the astrocyte layer became confluent (10-14 days), oligodendrocyte progenitors were separated from astrocytes and microglia using an orbital shaker. Cells, greater than 95% of which were A2B5 positive, GFAP negative and CD11b negative, were cultured in 0.5% FBS containing medium, which also contained PDGF (10 ng/ml) and FGF (5 ng/ml) (both from R&D Systems, Minneapolis, Minn.). Then cells were switched to 0.5% FBS medium without PDGF and FGF for differentiation. After 5 days in the differentiating medium, approximately 40% of cells were positive for myelin protein 2′3′-cyclic nucleotide 3′-phosphodiestaerase (CNP). 70 U/ml recombinant rat IFN-γ (Calbiochem, La Jolla, Calif.) was added to the cells that had been allowed to differentiation for 5 days. […]
To determine whether INF-γ affects ER function, the RNA expression of ER markers binding immunoglobulin protein (BIP), CAAT enhancer binding protein homologous protein (CHOP), and caspase 12 was determined using real time PCR. […]
To determine the effect of INF-γ on the level of phosphorylated eIF-2α and caspase 12 proteins, western blot analysis was performed using the following antibodies anti-eIF-2α (1:500; Santa Cruz), anti-p-eIF-2α (1:1000, Cell signaling Technology), anti-caspase-12 (1:500; Santa Cruz) and anti-actin (1:1000; Sigma, St Louis, Mo.), and according to the following protocol. […] The protein content of each extract was determined by protein assay (Bio-Rad). […]
(In general: In qPCR the cycle at which signal appears reflects the starting amount.)

A further assay has as its system mice with EAE. Briefly: MOG35-55-induced EAE, CNS delivery of INF-γ at the recovery stage (doxycycline withdrawn at PID7). It counts as in vivo. To be noted: DOX− mice. An excerpt: Double transgenic mice that allow for temporally regulated delivery of INF-γ to the CNS (Lin et al., J Neurosci 24:10074-10083 (2004)) were used to assess the role of INF-γ in the pathogenesis of EAE. GFAP/tTA; TRE/IFN-γ double transgenic mice, as described in Example 1 were used to determine the effect of INF-γ on the demyelination caused by EAE. All mice were fed doxycycline from the day of conception to repress the expression of INF-γ, and were immunized with myelin oligodendrocyte protein (MOG35-55) to induce EAE. At day 7 postimmunization (PID7), doxycycline was withdrawn from the experimental group (PID7 DOX−).
The level of INF-γ was determined in the control (DOX+) and the PID7 DOX− mice using an ELISA immunoassay as described in Example 1, and the severity of the disease was assessed as a function of a clinical score. Clinical severity scores were recorded daily according to a 0-5 point scale, where 0=healthy, 1=flaccid tail, 2=ataxia and/or paresis of hind limbs, 3=paralysis of hind limbs and/or paresis of forelimbs, 4=tetraparalysis, and 5=moribund or dead.
The spinal cord from DOX+ and DOX− animals with EAE was immunostained for MBP, and the remyelination of axons was evaluated. The number of oligodendrocytes was determined in the spine from DOX+ and DOX− mice as the number of CC1 positive cells. Axonal damage was evaluated by immunostaining of non-phosphorylated neurofilament-H. Antibodies to non-phosphorylated neurofilament-H Were SMI32 diluted to 1:1000 and obtained from Sternberger Monoclonals.

B1: IFN-γ: pleotropic cytokine secreted by activated T lymphocytes and natural killer cells; recombinant rat IFN-γ added to cultures or transgenically expressed in mouse CNS (protein, UniProt P01581 23-156, looked up)
Interferon gamma: QGTLIESLESLKNYFNSSSMDAMEGKSLLLDIWRNWQKDGNTKILESQIISFYLRLFEVLKDNQAISNNISVIESHLITNFFSNSKAKKDAFMSIAKFEVNNPQIQHKAVNELIRVIHQLSPESSLRKRKRSRC
For B1, the “caspase-12 expression (real-time PCR)” value in assay [1] (70 U/ml IFN-γ) is listed as “induction of caspase-12 was observed”. Moreover, the “level of phosphorylated eIF-2α (Western blot)” value in assay [1] (70 U/ml IFN-γ, oligodendroglial cultures) is listed as “significantly elevated”. For the same molecule, the “level of the active fragment of caspase-12 (Western blot)” value in assay [1] (after 48 h of IFN-γ treatment) is “strongly elevated”. Moreover, the “mean maximum clinical score” value with mice with EAE (PID17, 0-5 point scale, DOX+ 2.66±0.80) stood at 2.69±0.69. The “mice that developed hind limb paralysis” value in the assay on mice with EAE (PID17, control twenty of 25) was 24 of 30. Besides, in the assay on mice with EAE (PID50), the “mice with hind limb paralysis that continued to suffer from the paralysis” value is given as 12/24. Further, the clinical score in the assay with mice with EAE (PID 50, control DOX+ less than 1) was ~2.
